Source: publication PMC11435836 (Vaccines, 2024)

Molecular target: the molecule itself
Experiment: SEC; Superose 6 Increase 10/300 GL; single ENC particles eluted at 11-12 mL, highly aggregated particles at 8-9 mL

B1: encapsulin (ENC) from Thermotoga maritima (natural protein, UniProt Q9WZP2 1-264, looked up)
chain: MEFLKRSFAPLTEKQWQEIDNRAREIFKTQLYGRKFVDVEGPYGWEYAAHPLGEVEVLSDENEVVKWGLRKSLPLIELRATFTLDLWELDNLERGKPNVDLSSLEETVRKVAEFEDEVIFRGCEKSGVKGLLSFEERKIECGSTPKDLLEAIVRALSIFSKDGIEGPYTLVINTDRWINFLKEEAGHYPLEKRVEECLRGGKIITTPRIEDALVVSERGGDFKLILGQDLSIGYEDREKDAVRLFITETFTFQVVNPEALILLK
notes: also called ENC NPs; ENC PNPs; copies: 60
binding result: binds
